{"source": "IntAct's records for PubMed 18067539", "parents": {"B1": {"name": "DNA-binding transcriptional repressor Mlc (Escherichia coli (strain K12)), P50456 (parent)", "chain": "MVAENQPGHIDQIKQTNAGAVYRLIDQLGPVSRIDLSRLAQLAPASITKIVREMLEAHLVQELEIKEAGNRGRPAVGLVVETEAWHYLSLRISRGEIFLALRDLSSKLVVEESQELALKDDLPLLDRIISHIDQFFIRHQKKLERLTSIAITLPGIIDTENGIVHRMPFYEDVKEMPLGEALEQHTGVPVYIQHDISAWTMAEALFGASRGARDVIQVVIDHNVGAGVITDGHLLHAGSSSLVEIGHTQVDPYGKRCYCGNHGCLETIASVDSILELAQLRLNQSMSSMLHGQPLTVDSLCQAALRGDLLAKDIITGVGAHVGRILAIMVNLFNPQKILIGSPLSKAADILFPVISDSIRQQALPAYSQHISVESTQFSNQGTMAGAALVKDAMYNGSLLIRLLQG", "partner": "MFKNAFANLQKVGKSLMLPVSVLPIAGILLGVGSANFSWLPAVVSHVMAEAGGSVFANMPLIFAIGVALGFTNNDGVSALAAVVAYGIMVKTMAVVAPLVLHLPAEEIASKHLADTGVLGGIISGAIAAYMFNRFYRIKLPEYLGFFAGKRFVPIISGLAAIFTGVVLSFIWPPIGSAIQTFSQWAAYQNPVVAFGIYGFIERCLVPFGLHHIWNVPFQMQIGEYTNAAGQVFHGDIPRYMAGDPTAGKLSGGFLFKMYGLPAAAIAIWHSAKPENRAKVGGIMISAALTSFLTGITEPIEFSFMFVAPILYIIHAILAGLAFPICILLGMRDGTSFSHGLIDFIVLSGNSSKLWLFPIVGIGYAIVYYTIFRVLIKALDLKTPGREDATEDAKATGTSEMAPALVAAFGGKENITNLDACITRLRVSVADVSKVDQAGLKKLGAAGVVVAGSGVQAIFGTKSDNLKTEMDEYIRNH"}}}
{"variants_of": "B1", "details": "with ptgcb_ecoli ptsG"}
{"variant": "MVAENQPGHIDQIKQTNAGAVYRLIDQLGPVSRIDLSRLAQLAPASITKIVREMLEAHLVQELEIKEAGNRGRPAVGLVVETEAWHYLSLRISRGEIFLALRDLSSKLVVEESQELALKDDLPLLDRIISHIDQFFIRHQKKLERLTSIAITLPGIIDTENGIVHRMPFYEDVKEMPLGEALEQHTGVPVYIQHDISAWTMAEALFGASRGARDVIQVVIDHNVGAGVITDGHLLHAGSSSLVEIGHTQVDPYGKRCYCGNHGCLETIASVDSILELAQLRLNQSMSSMLHGQPLTVDSLCQAALRGDLLAKDIITGVGAHVGRILAIMVNLFNPQKILIGSPLSKAADILFPVISDSIRQQALPAYSQHISVESTQFSNQGTMAGAALVKDAMYNGSLLIRLLQA", "note": "[G406A]", "effect of a mutation on the interaction": "decreasing interaction strength"}
